Target: T1, OB-RY986F (Homo sapiens, UniProt P48357, Y986F)
T1 construct: cells transfected with the full-length OB-R constructs; expressed in transfected cells; host or cells: COS-7
T1 sequence (P48357 22-1165 Y986F): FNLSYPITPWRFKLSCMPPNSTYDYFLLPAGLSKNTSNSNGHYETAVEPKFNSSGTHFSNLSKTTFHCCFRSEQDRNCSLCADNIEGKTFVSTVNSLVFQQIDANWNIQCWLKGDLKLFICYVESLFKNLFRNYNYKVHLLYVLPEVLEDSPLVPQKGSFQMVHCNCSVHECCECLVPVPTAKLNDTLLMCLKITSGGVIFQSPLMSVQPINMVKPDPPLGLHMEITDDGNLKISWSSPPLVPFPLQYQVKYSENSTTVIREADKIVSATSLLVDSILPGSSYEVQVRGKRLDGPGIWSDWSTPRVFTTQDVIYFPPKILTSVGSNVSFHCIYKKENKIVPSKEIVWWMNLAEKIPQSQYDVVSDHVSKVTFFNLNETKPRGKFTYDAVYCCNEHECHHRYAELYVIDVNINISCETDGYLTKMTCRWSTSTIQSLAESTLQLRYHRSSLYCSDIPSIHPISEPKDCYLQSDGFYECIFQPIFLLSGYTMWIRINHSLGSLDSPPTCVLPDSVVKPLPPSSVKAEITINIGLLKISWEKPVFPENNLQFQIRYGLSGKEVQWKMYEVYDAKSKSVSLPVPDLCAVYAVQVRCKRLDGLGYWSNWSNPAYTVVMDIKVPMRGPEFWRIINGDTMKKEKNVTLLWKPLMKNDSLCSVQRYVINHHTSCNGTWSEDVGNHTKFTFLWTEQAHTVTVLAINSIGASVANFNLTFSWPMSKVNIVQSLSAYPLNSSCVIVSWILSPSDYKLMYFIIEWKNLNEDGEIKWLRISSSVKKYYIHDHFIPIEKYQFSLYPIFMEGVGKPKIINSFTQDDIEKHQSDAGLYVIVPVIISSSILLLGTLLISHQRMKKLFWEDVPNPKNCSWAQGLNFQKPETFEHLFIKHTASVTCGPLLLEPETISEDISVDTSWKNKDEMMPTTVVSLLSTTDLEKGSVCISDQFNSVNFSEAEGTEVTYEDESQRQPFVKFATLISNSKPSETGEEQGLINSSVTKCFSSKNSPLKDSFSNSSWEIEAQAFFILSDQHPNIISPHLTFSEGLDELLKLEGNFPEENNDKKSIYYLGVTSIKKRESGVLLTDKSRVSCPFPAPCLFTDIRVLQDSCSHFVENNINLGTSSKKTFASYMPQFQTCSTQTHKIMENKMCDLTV
Experiment: Luciferase reporter gene assay (3(G3)-Cy6-LUC), leptin stimulation of COS cells expressing mutant OB-RY986F
Type: cell-based
Conditions: mutant receptor OB-RY986F, 100 ng/ml leptin for 24 hours
Protocol: The cytoplasmic domain and full-length human OB-R was cloned by PCR using human fetal liver and adipocyte cDNA (Clontech) and cloned into the expression vectors pCMX and pMT21. Chimeric receptors were constructed by fusing the extracellular domain and transmembrane domain of TrkC (amino acids 1 to 458) to the cytoplasmic domain of OB-R (amino acids 865-1165). A triple myc epitope tag was added at the C-terminus of all OB-R constructs (18). Truncation and point mutant constructs were generated by PCR and the sequences of all constructs were verified. Expression constructs were transfected into COS-7 cells using lipofectamine (GIBCO-BRL); 36-48 hours after transfection, cells were starved for either 2 hour,s for chimeric receptors or overnight for full-length receptors prior to stimulation.
Expression constructs (1 μg) for OB-R, OB-RY1141F, OB-RY986F, OB-RY1078, 1079F, and OB-RY986, 1141F were co-transfected with 1 μg of 3(G3)-Cy6-LUC and 0.1 μg of pCMX.LacZ into COS-7 cells (6-well dishes) using lipofectamine. The day after transfection, media was changed to serum-free OptiMEM (GIBCO-BRL) and then treated with 100 ng/ml murine leptin (PeproTech) or human leptin (R&D Systems) for 24 hours. […] Luciferase and β-galactosidase activities were measured in cell lysates (30) and luciferase activity was normalized to β-galactosidase activity to control for transfection differences. […]

increase in luciferase activity: 20 fold
Substance: leptin: the product of the obese gene, secreted by adipocytes; ligand of OB-R
